Measurements as given in article PMC8983781.

How the values were obtained:
[1] = molecular target: SP-C L188Q with the site 2 mutations (human) (UniProt P11686); experiment: co-IP; 293T cells co-transfected with an SP-C construct and one co-chaperone (BiP co-transfected in the GRP170 experiments; 20 mM NEM in wash and lysis for ERdj5); NP-40 lysates 24 h after transfection, immunoprecipitated with anti-SP-C overnight at 4 °C, Protein A agarose, washed with buffer containing 0.4 M NaCl; co-chaperones detected by western blot; in Fig. 4 signals normalised to SP-C and expressed as percent of parental L188Q
[2] = molecular target: 3HA-tagged SP-C L188Q (human) (UniProt P11686)
[3] = substrate: SP-C L188Q with the site 2 mutations (human) (UniProt P11686); experiment: co-IP; 293T cells co-transfected with an SP-C construct and one co-chaperone (BiP co-transfected in the GRP170 experiments; 20 mM NEM in wash and lysis for ERdj5); NP-40 lysates 24 h after transfection, immunoprecipitated with anti-SP-C overnight at 4 °C, Protein A agarose, washed with buffer containing 0.4 M NaCl; co-chaperones detected by western blot; in Fig. 4 signals normalised to SP-C and expressed as percent …

## ERdj4-3HA (mouse) (from UniProt Q9QYI6 24-222) (natural protein)
[1]
  percent reduction of binding against parental L188Q: 70%

## wild-type surfactant protein C (SP-C) proprotein, untagged (from UniProt P11686 1-58) (natural protein)
[2]
  percent of wild-type SP-C that is palmitoylated (a measure of transport to the Golgi) when co-expressed with the L188Q mutant; 17.6% when expressed alone: 10%

B1: GRP170 (human) (natural protein)
chain: LAVMSVDLGSESMKVAIVKPGVPMEIVLNKESRRKTPVIVTLKENERFFGDSAASMAIKNPKATLRYFQHLLGKQADNPHVALYQARFPEHELTFDPQRQTVHFQISSQLQFSPEEVLGMVLNYSRSLAEDFAEQPIKDAVITVPVFFNQAERRAVLQAARMAGLKVLQLINDNTATALSYGVFRRKDINTTAQNIMFYDMGSGSTVCTIVTYQMVKTKEAGMQPQLQIRGVGFDRTLGGLEMELRLRERLAGLFNEQRKGQRAKDVRENPRAMAKLLREANRLKTVLSANADHMAQIEGLMDDVDFKAKVTRVEFEELCADLFERVPGPVQQALQSAEMSLDEIEQVILVGGATRVPRVQEVLLKAVGKEELGKNINADEAAAMGAVYQAAALSKAFKVKPFVVRDAVVYPILVEFTREVEEEPGIHSLKHNKRVLFSRMGPYPQRKVITFNRYSHDFNFHINYGDLGFLGPEDLRVFGSQNLTTVKLKGVGDSFKKYPDYESKGIKAHFNLDESGVLSLDRVESVFETLVEDSAEEESTLTKLGNTISSLFGGGTTPDAKENGTDTVQEEEESPAEGSKDEPGEQVELKEEAEAPVEDGSQPPPPEPKGDATPEGEKATEKENGDKSEAQKPSEKAEAGPEGVAPAPEGEKKQKPARKRRMVEEIGVELVVLDLPDLPEDKLAQSVQKLQDLTLRDLEKQEREKAANSLEAFIFETQDKLYQPEYQEVSTEEQREEISGKLSAASTWLEDEGVGATTVMLKEKLAELRKLCQGLFFRVEERKKWPERLSALDNLLNHSSMFLKGARLIPEMDQIFTEVEMTTLEKVINETWAWKNATLAEQAKLPATEKPVLLSKDIEAKMMALDREVQYLLNKAKFTKPRPRPKDKNGTRAEPPLNASASDQGEKVIPPAGQTEDAEPISEPEKVETGSEPGDTEPLELGGPGAEPEQKEQSTGQKRPLKNDEL
[3]
  percent of the binding to parental L188Q: 30%

B2: ERdj5 (mouse) (natural protein)
chain: DQNFYSLLGVSKTASSREIRQAFKKLALKLHPDKNPNNPNAHGDFLKINRAYEVLKDEDLRKKYDKYGEKGLEDNQGGQYESWSYYRYDFGIYDDDPEIITLERREFDAAVNSGELWFVNFYSPGCSHCHDLAPTWREFAKEVDGLLRIGAVNCGDDRMLCRMKGVNSYPSLFIFRSGMAAVKYNGDRSKESLVAFAMQHVRSTVTELSTGNFVNAIETAFAAGVGWLITFCSKGEDCLTSQTRLRLSGMLDGLVNVGWVDCDAQDSLCKSLDTTASTTAYFPPGATLNDREKSSVLFLNSLDAKEIYMEIIHNLPDFELLSANQLEDRLAHHRWLVFFHFGKNENANDPELKKLKTLLKNEHIQVGRFDCSSAPGICSDLYVFQPCLAVFKGQGTKEYEIHHGKKILYDILAFAKESVNSHVTTLGPQNFPASDKEPWLVDFFAPWCPPCRALLPELRKASTLLYGQLKVGTLDCTIHEGLCNMYNIQAYPTTVVFNQSSIHEYEGHHSAEQILEFIEDLRNPSVVSLTPSTFNELVKQRKHDEVWMVDFYSPWCHPCQVLMPEWKRMARTLTGLINVGSVDCQQYHSFCTQENVQRYPEIRFYPQKSSKAYQYHSYNGWNRDAYSLRSWGLGFLPQASIDLTPQTFNEKVLQGKTHWVVDFYAPWCGPCQNFAPEFELLARMIKGKVRAGKVDCQAYPQTCQKAGIKAYPSVKLYQYERAKKSIWEEQINSRDAKTIAALIYGKLETLQSQVKRNKDEL
[3]
  percent reduction of binding against parental L188Q: 30%
